The values that follow come from paper PMC9958909, “Insight into the Structural Basis for Dual Nucleic Acid—Recognition by the Scaffold Attachment Factor B2 Protein”.

Where a chain is given by its changes, count along the chain named.

The target of data set [1] is SAFB2 SAP domain (21-70), wild type (human) (UniProt Q14151). Briefly: SEC; preparative size exclusion on HiLoad 16/600 SD 75 in 25 mM sodium phosphate, 150 mM NaCl, 0.02% NaN3, pH 6.5; size from calibration.
Data set [2] addresses T1, SAFB2 SAP WT (21-70) (Homo sapiens, UniProt Q14151 21-70).
T1 chain: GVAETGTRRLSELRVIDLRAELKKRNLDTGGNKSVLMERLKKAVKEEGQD
Briefly: EMSA; 0-40 uM SAP; yeast tRNA, 10 mM MgCl2; slight preference for AT over GC; apparent micromolar affinity; NMR: 20 mM BisTris, 150 mM NaCl, pH 6.5, 5% D2O, 298 K (RRM plus 2 mM TCEP). EMSA: 25 mM sodium phosphate, 150 mM NaCl, 0.02% NaN3, pH 6.5, 10 mM MgCl2, 0.6 ug. The settings on record: protein: recombinant; tags: N-terminal GAM left after TEV cleavage (His6-Trx removed); label: 5'-6-FAM on fw strand; blunt.

Data set [3] addresses T2, SAFB2 RRM (404-485) (Homo sapiens, UniProt Q14151 404-485). The experiment in a line: NMR titration; significant CSPs of RNP residues; NMR: 20 mM BisTris, 150 mM NaCl, pH 6.5, 5% D2O, 298 K (RRM plus 2 mM TCEP). EMSA: 25 mM sodium phosphate, 150 mM NaCl, 0.02% NaN3, pH 6.5, 10 mM MgCl2, 0.6 ug. The settings on record: protein: recombinant; tags: N-terminal GAM left after TEV cleavage (His6-Trx removed).

For data set [4], the target named is T1, SAFB2 SAP WT (21-70). Briefly: NMR titration; up to 6x DNA; fast exchange; NMR: 20 mM BisTris, 150 mM NaCl, pH 6.5, 5% D2O, 298 K (RRM plus 2 mM TCEP). EMSA: 25 mM sodium phosphate, 150 mM NaCl, 0.02% NaN3, pH 6.5, 10 mM MgCl2, 0.6 ug. The settings on record: protein: recombinant; tags: N-terminal GAM left after TEV cleavage (His6-Trx removed); blunt. Background: Mobility shift assays separate free from complexed probe on a gel.

Data set [5] addresses T2, SAFB2 RRM (404-485). The experiment in a line: NMR titration; CSPs equal to A7/C7; NMR: 20 mM BisTris, 150 mM NaCl, pH 6.5, 5% D2O, 298 K (RRM plus 2 mM TCEP). EMSA: 25 mM sodium phosphate, 150 mM NaCl, 0.02% NaN3, pH 6.5, 10 mM MgCl2, 0.6 ug. Particulars: protein: recombinant; tags: N-terminal GAM left after TEV cleavage (His6-Trx removed); blunt.
The next data set concerns the target T3, SAFB2 SAP K53A/S54A (Homo sapiens, UniProt Q14151 21-70, K53A;S54A).
T3 chain: T1 chain with K33A, S34A
Briefly: NMR titration; 6x DNA; no significant CSPs; NMR: 20 mM BisTris, 150 mM NaCl, pH 6.5, 5% D2O, 298 K (RRM plus 2 mM TCEP). EMSA: 25 mM sodium phosphate, 150 mM NaCl, 0.02% NaN3, pH 6.5, 10 mM MgCl2, 0.6 ug. The settings on record: protein: recombinant; tags: N-terminal GAM left after TEV cleavage; blunt.

In data set [6] the target is T1, SAFB2 SAP WT (21-70). Briefly: NMR titration; CSP as for 16mer; NMR: 20 mM BisTris, 150 mM NaCl, pH 6.5, 5% D2O, 298 K (RRM plus 2 mM TCEP). EMSA: 25 mM sodium phosphate, 150 mM NaCl, 0.02% NaN3, pH 6.5, 10 mM MgCl2, 0.6 ug. The settings on record: protein: recombinant; tags: N-terminal GAM left after TEV cleavage (His6-Trx removed); blunt.

T2 sequence (Q14151 404-485): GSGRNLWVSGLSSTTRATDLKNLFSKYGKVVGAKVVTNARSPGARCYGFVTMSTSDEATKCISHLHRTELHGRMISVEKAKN

In data set [1], “SAFB2 SAP domain (21-70), wild type (from UniProt Q14151 21-70) (domain or fragment)” gave a stoichiometry N of 2.

B1: dsAT13mer (dsDNA)
DNA 1: GCAATAAATACG
DNA 2: CGTATTTATTGC
Turning to B1, the binding result in the data set with SAFB2 SAP WT (21-70) [2] was “binds”.
For the molecule AAAAAAA (ssRNA) [A7], in the data set with SAFB2 RRM (404-485) [3], the binding result is listed as “binds”.

B2: dsAT16mer (dsDNA)
DNA 1: GCGCACAATATAACGC
DNA 2: GCGTTATATTGTGCGC
With B2, the binding result with SAFB2 SAP WT (21-70) [4] and in the data set with SAFB2 RRM (404-485) [5] was “binds” throughout.

B3: dsAT9mer (dsDNA)
DNA 1: CAATATAAC
DNA 2: GTTATATTG
On to B3, for which the binding result with SAFB2 SAP K53A/S54A is “no binding”; with SAFB2 SAP WT (21-70) [6], “binds”.

B4: dsGC16mer (dsDNA)
DNA 1: CGCCCCCGCGCCCGCG
DNA 2: CGCGGGCGCGGGGGCG
B4: the binding result with SAFB2 RRM (404-485) [5] is given as “binds”.
CCCCCCC (ssRNA) [C7]: the binding result with SAFB2 RRM (404-485) [3] was “binds”.

As a reminder, the stoichiometry N is a count of units in the complex or per binding partner.
